According to patent publication US20240270846A1 (published 2024):
Where a chain is given by its changes, count along the chain named. Names and notes keep the numbering of the source.

B1: GLS3000 K50D one-arm antibody (H chain CE115HA000) (antibody, human IgG1, kappa, L234A L235A, N297A, name in Kabat numbering)
heavy: QVQLVESGGGVVQPGRSLRLSCAASGFTFSNAWMHWVRQAPGKGLEWVAQIKAKSNNYATYYAESVKGRFTISRDDSKNSLYLQMNSLKTEDTAVYYCRYVHYGAYYGVDAWGQGTTVTVSSASTKGPSVFPLAPSSKSTSGGTAALGCLVKDYFPEPVTVSWNSGALTSGVHTFPAVLQSSGLYSLSSVVTVPSSSLGTQTYICNVNHKPSNTKVDKKVEPKSCDKTHTCPPCPAPEAAGGPSVFLFPPKPKDTLMISRTPEVTCVVVDVSHEDPEVKFNWYVDGVEVHNAKTKPREEQYASTYRVVSVLTVLHQDWLNGKEYKCKVSNKALPAPIEKTISKAKGQPREPQVYTLPPSRCELTKNQVSLSCAVKGFYPSDIAVEWESNGQPENNYKTTPPVLDSDGSFFLVSKLTVDKSRWQQGNVFSCSVMHEALHNHYTQKSLSLSPDYKDDDDK
chain: EPKSSDKTHTCPPCPAPELLGGPSVFLFPPKPKDTLMISRTPEVTCVVVDVSHEDPEVKFNWYVDGVEVHNAKTKPREEQYNSTYRVVSVLTVLHQDWLNGKEYKCKVSNKALPAPIEKTISKAKGQPREPQVCTLPPSRDELTKNQVSLWCLVKGFYPSDIAVEWESNGQPENNYKTTPPVLDSDGSFFLYSKLTVDKSRWQQGNVFSCSVMHEALHNRYTQKSLSLSP
light: DIVMTQSPLSLPVTPGEPASISCRSSQSLVHSNRNTYLHWYQQKPGQAPRLLIYDVSNRFSGVPDRFSGSGSGTDFTLKISRVEAEDVGVYYCGQGTQVPYTFGQGTKLEIKRTVAAPSVFIFPPSDEQLKSGTASVVCLLNNFYPREAKVQWKVDNALQSGNSQESVTEQDSKDSTYSLSSTLTLSKADYEKHKVYACEVTHQGLSSPVTKSFNRGEC
notes: one-arm antibody
B2: GLS3000 N28Q one-arm antibody (H chain CE115HA000) (antibody, human IgG1, kappa, L234A L235A, N297A, name in Kabat numbering)
heavy: B1 heavy
chain: B1 chain
light: B1 light with N33Q, D55K
notes: one-arm antibody
B3: GLS3000 N28I one-arm antibody (H chain CE115HA000) (antibody, human IgG1, kappa, L234A L235A, N297A, name in Kabat numbering)
heavy: B1 heavy
chain: B1 chain
light: B1 light with N33I, D55K
notes: one-arm antibody
B4: GLS3000 N28P one-arm antibody (H chain CE115HA000) (antibody, human IgG1, kappa, L234A L235A, N297A, name in Kabat numbering)
heavy: B1 heavy
chain: B1 chain
light: B1 light with N33P, D55K
notes: one-arm antibody
B5: GLS3000 N28S one-arm antibody (H chain CE115HA000) (antibody, human IgG1, kappa, L234A L235A, N297A, name in Kabat numbering)
heavy: B1 heavy
chain: B1 chain
light: B1 light with N33S, D55K
notes: one-arm antibody
B6: GLS3000 N30D one-arm antibody (H chain CE115HA000) (antibody, human IgG1, kappa, L234A L235A, N297A, name in Kabat numbering)
heavy: B1 heavy
chain: B1 chain
light: B1 light with N35D, D55K
notes: one-arm antibody
B7: GLS3000 L27bD one-arm antibody (H chain CE115HA000) (antibody, human IgG1, kappa, L234A L235A, N297A, name in Kabat numbering)
heavy: B1 heavy
chain: B1 chain
light: B1 light with L29D, D55K
notes: one-arm antibody
B8: GLS3000 L27bF one-arm antibody (H chain CE115HA000) (antibody, human IgG1, kappa, L234A L235A, N297A, name in Kabat numbering)
heavy: B1 heavy
chain: B1 chain
light: B1 light with L29F, D55K
notes: one-arm antibody
B9: GLS3000 N28D one-arm antibody (H chain CE115HA000) (antibody, human IgG1, kappa, L234A L235A, N297A, name in Kabat numbering)
heavy: B1 heavy
chain: B1 chain
light: B1 light with N33D, D55K
notes: one-arm antibody
B10: GLS3000 L33A one-arm antibody (H chain CE115HA000) (antibody, human IgG1, kappa, L234A L235A, N297A, name in Kabat numbering)
heavy: B1 heavy
chain: B1 chain
light: B1 light with L38A, D55K
notes: one-arm antibody
B11: GLS3000 N28M one-arm antibody (H chain CE115HA000) (antibody, human IgG1, kappa, L234A L235A, N297A, name in Kabat numbering)
heavy: B1 heavy
chain: B1 chain
light: B1 light with N33M, D55K
notes: one-arm antibody
B12: GLS3000 N28E one-arm antibody (H chain CE115HA000) (antibody, human IgG1, kappa, L234A L235A, N297A, name in Kabat numbering)
heavy: B1 heavy
chain: B1 chain
light: B1 light with N33E, D55K
notes: one-arm antibody
B13: GLS3000 L27bI one-arm antibody (H chain CE115HA000) (antibody, human IgG1, kappa, L234A L235A, N297A, name in Kabat numbering)
heavy: B1 heavy
chain: B1 chain
light: B1 light with L29I, D55K
notes: one-arm antibody
B14: GLS3000 N28T one-arm antibody (H chain CE115HA000) (antibody, human IgG1, kappa, L234A L235A, N297A, name in Kabat numbering)
heavy: B1 heavy
chain: B1 chain
light: B1 light with N33T, D55K
notes: one-arm antibody
B15: GLS3000 N28H one-arm antibody (H chain CE115HA000) (antibody, human IgG1, kappa, L234A L235A, N297A, name in Kabat numbering)
heavy: B1 heavy
chain: B1 chain
light: B1 light with N33H, D55K
notes: one-arm antibody
B16: GLS3000 L27bS one-arm antibody (H chain CE115HA000) (antibody, human IgG1, kappa, L234A L235A, N297A, name in Kabat numbering)
heavy: B1 heavy
chain: B1 chain
light: B1 light with L29S, D55K
notes: one-arm antibody
B17: GLS3000 L27bE one-arm antibody (H chain CE115HA000) (antibody, human IgG1, kappa, L234A L235A, N297A, name in Kabat numbering)
heavy: B1 heavy
chain: B1 chain
light: B1 light with L29E, D55K
notes: one-arm antibody
B18: GLS3000 L27bW one-arm antibody (H chain CE115HA000) (antibody, human IgG1, kappa, L234A L235A, N297A, name in Kabat numbering)
heavy: B1 heavy
chain: B1 chain
light: B1 light with L29W, D55K
notes: one-arm antibody
B19: GLS3000 N28G one-arm antibody (H chain CE115HA000) (antibody, human IgG1, kappa, L234A L235A, N297A, name in Kabat numbering)
heavy: B1 heavy
chain: B1 chain
light: B1 light with N33G, D55K
notes: one-arm antibody
B20: GLS3000 L27bV one-arm antibody (H chain CE115HA000) (antibody, human IgG1, kappa, L234A L235A, N297A, name in Kabat numbering)
heavy: B1 heavy
chain: B1 chain
light: B1 light with L29V, D55K
notes: one-arm antibody
B21: GLS3000 N28F one-arm antibody (H chain CE115HA000) (antibody, human IgG1, kappa, L234A L235A, N297A, name in Kabat numbering)
heavy: B1 heavy
chain: B1 chain
light: B1 light with N33F, D55K
notes: one-arm antibody
B22: GLS3000 N28Y one-arm antibody (H chain CE115HA000) (antibody, human IgG1, kappa, L234A L235A, N297A, name in Kabat numbering)
heavy: B1 heavy
chain: B1 chain
light: B1 light with N33Y, D55K
notes: one-arm antibody
B23: GLS3000 L33D one-arm antibody (H chain CE115HA000) (antibody, human IgG1, kappa, L234A L235A, N297A, name in Kabat numbering)
heavy: B1 heavy
chain: B1 chain
light: B1 light with L38D, D55K
notes: one-arm antibody
B24: GLS3000 N28L one-arm antibody (H chain CE115HA000) (antibody, human IgG1, kappa, L234A L235A, N297A, name in Kabat numbering)
heavy: B1 heavy
chain: B1 chain
light: B1 light with N33L, D55K
notes: one-arm antibody
B25: GLS3000 N28K one-arm antibody (H chain CE115HA000) (antibody, human IgG1, kappa, L234A L235A, N297A, name in Kabat numbering)
heavy: B1 heavy
chain: B1 chain
light: B1 light with N33K, D55K
notes: one-arm antibody
B26: GLS3000 L27bM one-arm antibody (H chain CE115HA000) (antibody, human IgG1, kappa, L234A L235A, N297A, name in Kabat numbering)
heavy: B1 heavy
chain: B1 chain
light: B1 light with L29M, D55K
notes: one-arm antibody
B27: GLS3000 L27bY one-arm antibody (H chain CE115HA000) (antibody, human IgG1, kappa, L234A L235A, N297A, name in Kabat numbering)
heavy: B1 heavy
chain: B1 chain
light: B1 light with L29Y, D55K
notes: one-arm antibody
B28: GLS3000 L27bP one-arm antibody (H chain CE115HA000) (antibody, human IgG1, kappa, L234A L235A, N297A, name in Kabat numbering)
heavy: B1 heavy
chain: B1 chain
light: B1 light with L29P, D55K
notes: one-arm antibody
B29: GLS3000 N28V one-arm antibody (H chain CE115HA000) (antibody, human IgG1, kappa, L234A L235A, N297A, name in Kabat numbering)
heavy: B1 heavy
chain: B1 chain
light: B1 light with N33V, D55K
notes: one-arm antibody
B30: GLS3000 N30A one-arm antibody (H chain CE115HA000) (antibody, human IgG1, kappa, L234A L235A, N297A, name in Kabat numbering)
heavy: B1 heavy
chain: B1 chain
light: B1 light with N35A, D55K
notes: one-arm antibody
B31: GLS3000 N28W one-arm antibody (H chain CE115HA000) (antibody, human IgG1, kappa, L234A L235A, N297A, name in Kabat numbering)
heavy: B1 heavy
chain: B1 chain
light: B1 light with N33W, D55K
notes: one-arm antibody
B32: GLS3000 N28A one-arm antibody (H chain CE115HA000) (antibody, human IgG1, kappa, L234A L235A, N297A, name in Kabat numbering)
heavy: B1 heavy
chain: B1 chain
light: B1 light with N33A, D55K
notes: one-arm antibody

What follows are binders tested against T1, CD3 epsilon homodimer protein (UniProt P07766 23-126) (assay: SPR, CD3e homodimer on chip;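 note: surface plasmon resonance at 25 degrees C, antibodies flowed as analyte over CD3 epsilon homodimer amine-coupled to a CM4 chip, running buffer HBS-EP+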).
T1 construct: also called CD3 (CD3 epsilon)
T1 sequence (P07766 23-126): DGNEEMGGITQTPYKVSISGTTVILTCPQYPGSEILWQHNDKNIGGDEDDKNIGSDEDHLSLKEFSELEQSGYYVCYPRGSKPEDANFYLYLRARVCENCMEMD
Protocol: An appropriate amount of CD3 epsilon homodimer protein was immobilized onto Sensor chip CM4 (GE Healthcare Japan Corp.) by the amine coupling method. Then, the antibody having an appropriate concentration was injected thereto as an analyte and allowed to interact with the CD3 epsilon homodimer protein on the sensor chip. Then, the sensor chip was regenerated by the injection of 10 mmol/L glycine-HCl (pH 1.5). The assay was conducted at 25 degrees C., and HBS-EP+(GE Healthcare Japan Corp.) was used as a running buffer. […] Each parameter was calculated using Biacore T200 Evaluation Software (GE Healthcare Japan Corp.).
Specifically, when the amount of the GLS3000-containing antibody bound was defined as X and the amount of the L chain one-amino acid altered form bound was defined as Y, a value of Z (ratio of amounts bound)=Y/X was used.

Row | ratio of amounts bound (altered form / unaltered GLS3000 antibody) | Binder
1 | 0.22 | B1
2 | 0.37 | B2
3 | 0.44 | B3
4 | 0.36 | B4
5 | 0.32 | B5
6 | 0.34 | B6
7 | 0.17 | B7
8 | 0.42 | B8
9 | 0.19 | B9
10 | 0.85 | B10
11 | 0.39 | B11
12 | 0.4 | B12
13 | 1.19 | B13
14 | 0.45 | B14
15 | 0.42 | B15
16 | 0.71 | B16

Row | ratio of amounts bound (altered form / unaltered GLS3000 antibody) | Binder
17 | 0.17 | B17
18 | 0.26 | B18
19 | 0.46 | B19
20 | 1.12 | B20
21 | 0.46 | B21
22 | 0.26 | B22
23 | 0.17 | B23
24 | 0.39 | B24
25 | 0.44 | B25
26 | 0.71 | B26
27 | 0.25 | B27
28 | 0.91 | B28
29 | 0.36 | B29
30 | 0.5 | B30
31 | 0.41 | B31
32 | 0.25 | B32
